Data set [1] can be described thus: in vivo. To be noted: male, SCID, mouse, iv, 10 pmol, total radioactivity. Here is the method: (§1) Inocula of A431-CCK2R(+) and A431-CCK2R(−) cells (1.5 × 10^7 cells and 1.2 × 10^7 cells respectively, in 150 µL normal saline) were subcutaneously injected in the right and left flanks respectively, of 12 male SCID mice; in 5 more mice, a A431-CCK2R(+) cell suspension (1.5 × 10^7 cells in 150 µL normal saline) was subcutaneously injected instead on the neck of the animals. […] All animals were kept under aseptic conditions during this period and until biodistribution or imaging was conducted.
(§2) For the biodistribution study, animals in groups of 4 received a 100 μL bolus of [^99mTc]Tc-DB4 via the tail vein (200 kBq, corresponding to 10 pmol total peptide in saline/EtOH 9/1 v/v—GRPR-tumor-bearing mice) or [^111In]In-SG4 (50 kBq, 10 pmol total peptide—twin A431-CCK2R(+)/A431-CCK2R(−) tumor-bearing mice) co-injected either with injection solution (100 μL; control) or with LBQ657 solution (100 µL injection solution containing 10 µg LBQ657). In additional sets of animals, mice received, by gavage, a single Entresto dose (12 mg/[…] per animal, prepared as described in Section 2.1.1) 30 min prior to injection of the respective radiotracer together with vehicle (100 μL; Entresto group), or with a [Tyr^4]BBN solution (100 μg in 100 μL vehicle; block group). Mice were euthanized at 4 h pi and dissected. Samples of blood, tumors and organs of interest were collected, weighed and measured for radioactivity in the γ-counter (an automated well-type gamma counter with a NaI(Tl) 3′’ crystal, Canberra Packard Auto-Gamma 5000 series instrument). Intestines and stomach were not emptied of their contents; exceptionally, in the case of [^111In]In-SG4-injected animals, stomachs were emptied of their contents. Data was calculated as percent injected activity per gram tissue (%IA/g) with the aid of standard solutions and represented as mean values ± standard deviation (SD), n = 4.

Data set [2] concerns SCID mice bearing double A431-CCK2R(+/−) xenografts (CCK2R). Nature of the data set: in vivo. The note with it: SCID mice with double A431-CCK2R(+/−) xenografts, 4 h pi, 50 kBq/10 pmol peptide iv, γ-counter, mean ± SD, n = 4; for Biodistribution, Stomach: stomach emptied of contents; for Biodistribution, Intestines: intestines not emptied. Here is the method: as §1, §2
Data set [3] deals with A431-CCK2R(+) tumor-bearing mice. The note with it: 4 h after injection.
Procedure: Five mice bearing A431-CCK2R(+) xenografts on their shoulders were used for SPECT/CT imaging. Three out of five mice received Entresto by gavage 30 min prior to radiotracer injection. All five animals were injected with a bolus containing [^111In]In-SG4 (100 μL, 5 MBq of HPLC isolated preparation) via the tail vein and were euthanized 4 h later. […] The SPECT system was based on monolithic NaI detectors attached to SiPMs, with a 0.6 mm intrinsic resolution. The CT system was based on a structured CMOS detector of CsI with pixels of 75 µm and operated between 35 and 80 kVp, 10–500 µA tube current, with a 33 µm fixed focal spot size. For SPECT scans, a 60 min duration protocol was applied, based on the injected activity. A CT scan followed after each SPECT scan, according to a General Purpose protocol under 50 kVp for co-registration purposes. The MLEM reconstruction method was applied for the reconstruction of SPECT images with a 250 µm voxel size and 500 iterations. The ISRA reconstruction method with a 100 µm voxel size was applied for the reconstruction of CT images. Images were exported and post-processed on VivoQuant software, version 4.0 (Invicro, Boston, MA, USA). A smoothing median filter (0.6 mm, spherical window) was applied to the images and for consistency purposes, the bladder was removed.
[4] abbreviates: Entresto: 12 mg/200 mL by gavage 30 min before, co-injected with vehicle.
Where [5] appears, read: LBQ657: co-injected with 10 µg LBQ657.

Non-standard residues stand in square brackets, D forms with d. Residues, ends and D or L forms follow the SMILES beside them. *: point of attachment. DOTA = O=C(O)CN1CCN(CC(=O)O)CCN(CC(=O)*)CCN(CC(=O)O)CC1; Nle = CCCC[C@H](N)C(=O)O

The tissue uptake is the share of the injected amount in each gram of the tissue. As to `CCCC[C@H](NC(=O)[C@H](Cc1c[nH]c2ccccc12)NC(=O)CNC(=O)[C@H](Cc1ccc(O)cc1)NC(=O)[C@H](C)NC(=O)[C@@H](CCC(=O)O)NC(=O)CN1CCN(CC(=O)O)CCN(CC(=O)O)CCN(CC(=O)O)CC1)C(=O)N[C@@H](CC(=O)O)C(=O)N[C@@H](Cc1ccccc1)C(N)=O` [[^111In]In-SG4, metal not drawn] ({DOTA}-[dE]AYGW[Nle]DF-NH2), the tissue uptake at 4 h in data set [1] (A431-CCK2R(+) tumor) came out at 3.07 ± 0.87 %ID/g; in data set [1] (A431-CCK2R(−) tumor) it was 0.28 ± 0.21 %ID/g; in data set [1] (blood), 0.03 ± 0.02 %ID/g; in data set [1] (femur) it was 0.1 ± 0.03 %ID/g; in data set [1] (heart) it was 0.05 ± 0.02 %ID/g; in data set [1] (kidneys), 2.1 ± 0.49 %ID/g. The tissue uptake at 4 h in data set [1] (liver) was 0.15 ± 0.02 %ID/g; in data set [1] (lungs), 0.06 ± 0.01 %ID/g; in data set [1] (muscle), 0.03 ± 0.02 %ID/g; in data set [1] (pancreas), 0.08 ± 0.09 %ID/g; in data set [1] (spleen), 0.11 ± 0.04 %ID/g. Also, the “Biodistribution, Stomach” value in data set [2] (Controls: co-injected with vehicle) was 1.29 ± 0.25 %IA/g; in data set [2] (setting [4]), 2.86 ± 0.53 %IA/g; in data set [2] (setting [5]), 3.10 ± 0.41 %IA/g. Also, the “Biodistribution, Femur” value in data set [2] (setting [4]) came to 0.14 ± 0.03 %IA/g. In data set [2] (setting [4]), the “Biodistribution, Kidneys” value was 2.40 ± 0.61 %IA/g. Moreover, the “Biodistribution, Pancreas” value in data set [2] (setting [4]) worked out at 0.34 ± 0.14 %IA/g. Further, the “Biodistribution, Spleen” value in data set [2] (setting [4]) came to 0.22 ± 0.05 %IA/g. The “Biodistribution, Tumor (+) (A431-CCK2R(+))” value in data set [2] (setting [4]) turned out to be 9.61 ± 1.70 %IA/g. The “Biodistribution, Tumor (–) (A431-CCK2R(−))” value in data set [2] (setting [4]) was 0.40 ± 0.23 %IA/g. Further, the “Biodistribution, Intestines” value in data set [2] (setting [4]) came to 0.34 ± 0.07 %IA/g; in data set [2] (setting [5]), 0.49 ± 0.12 %IA/g. In data set [3] (Entresto orally 30 min in advance (3 mice) vs controls (2 mice), A431-CCK2R(+) tumors, 5 MBq iv), the “change of tumor uptake on SPECT/CT, Entresto-treated vs controls” value is “notable increase in the tumor uptake”. Further, the “accumulation in A431-CCK2R(+) xenografts on SPECT/CT images” value in data set [3] (SCID mice bearing A431-CCK2R(+) tumors, 5 MBq HPLC-isolated iv, five mice) is listed as “Significant accumulation”.
